Test results reported in patent US20230212319A1, “NOVEL ANTIGEN BINDING DOMAINS AND SYNTHETIC ANTIGEN RECEPTORS INCORPORATING THE SAME” (University of Southern California, priority 2020, published 2023).

B1: 22225 (protein)
chain: MALPVTALLLPLALLLHAARPDIQMTQSPSSLSASVGDRVTITCKASDHINNWLAWYQQKPGQAPKLLIYGATTLETGVPSRFSGSGSGTDYTLTISSLQPEDFATYYCQQSWNTPWTFGQGTKLEIKRLEDLKNVFPPEVAVFEPSEAEISHTQKATLVCLATGFYPDHVELSWWVNGKEVHSGVCTDPQPLKEQPALNDSRYCLSSRLRVSATFWQNPRNHFRCQVQFYGLSENDEWTQDRAKPVTQIVSAEAWGRADCGFTSESYQQGVLSATILYEILLGKATLYAVLVSALVLMAMVKRKDSRGRAKRSGSGATNFSLLKQAGDVEENPGPTSATMDWIWRILFLVGAATGAHSGPEVQLVESGGGLVQAGGSLRLSCAASGRTFTMGWFRQAPGKEREFVAAISLSPTLAYYADSVKGRFTISRDNAKNTVVLQMNSLKPEDTALYYCAADRKSVMSIRPDYWGQGTQVTVSSGSGPLGIAGIFEQVQLQQPGAELVKPGASVKMSCKASGYAFSSYWINWMKQKPGQGLEWIGQIYPGDGDTNYNGKFKGRATLTADTSSSTAYMQLSSLTSEDSAVYFCARSITTVVGCAMDYWGQGTSVTVSSTRIQNPDPAVYQLRDSKSSDKSVCLFTDFDSQTNVSQSKDSDVYITDKCVLDMRSMDFKSNSAVAWSNKSDFACANAFNNSIIPEDTFFPSPESSCDVKLVEKSFETDTNLNFQNLSVIGFRILLLKVAGFNLLMTLRLWSSRAKRSGSGVKQTLNFDLLKLAGDVESNPGPSRGHMTEYKPTVRLATRDDVPRAVRTLAAAFADYPATRHTVDPDRHIERVTELQELFLTRVGLDIGKVWVADDGAAVAVWTTPESVEAGAVFAEIGPRMAELSGSRLAAQQQMEGLLAPHRPKEPAWFLATVGVSPDHQGKGLGSAVVLPGVEAAERAGVPAFLETSAPRNLPFYERLGFTVTADVEVPEGPRTWCMTRKPGA
B2: 22250 (protein)
chain: B1 chain
B3: 22145 (protein)
chain: MALPVTALLLPLALLLHAARPACEVQLLESGGGLIQPGGSLRLSCAASGFTFSSHAMTWVRQAPGKGLEWVSAISGSGDYTHYADSVKGRFTISRDNSKNTVYLQMNSLRAEDSAVYYCAKDEDGGSLLGHRGQGTLVTVSSGTGGGGSGGGGSGGGGSEFDIQMTQSPSSLSASVGDRVTITCRASQDISNYLNWYQQKPGKAVKLLIYYTSILHSGVPSRFSGSGSGTDYTLTISSLQPEDFATYFCQQGNTLPWTFGGGTKVEIKLEGQPKANPTVTLFPPSSEELQANKATLVCLISDFYPGAVTVAWKADGSPVKAGVETTKPSKQSNNKYAASSYLSLTPEQWKSHRSYSCQVTHEGSTVEKTVAPTECSPIKTDVITMDPKDNCSKDANDTLLLQLTNTSAYYMYLLLLLKSVVYFAIITCCLLRRTAFCCNGEKSRAKRSGSGATNFSLLKQAGDVEENPGPTSATMDWIWRILFLVGAATGAHSGPQVQLQESGGGLAQAGGSLRLSCAASGRTFSMGWFRQAPGKEREFVAAITYSGGSPYYASSVRGRFTISRDNAKNTVYLQMNSLKPEDTAVYYCAANPTYGSDWNAENWGQGTQVTVSSGSGGGGSGGGGSGGGGSFEVQLVESGGGLVKPGGSLKLSCAASGFAFSIYDMSWVRQAPGKGLEWVAYISSGGGTTYYPDTVKGRFTISRDNAKNTLYLQMSSLRAEDTAMYYCARHSGYGSSYGVLFAYWGQGTLVTVSSTRASTKGPSVFPLAPSSKSTSGGTAALGCLVKDYFPEPVTVSWNSGALTSGVHTFPAVLQSSGLYSLSSVVTVPSSSLGTQTYICNVNHKPSNTKVDKRVEPKSCEVKTDSTDHVKPKETENTKQPSKSCHKPKAIVHTEKVNMMSLTVLGLRMLFAKTVAVNFLLTAKLFFLRAKRSGSGVKQTLNFDLLKLAGDVESNPGPSRGHMTEYKPTVRLATRDDVPRAVRTLAAAFADYPATRHTVDPDRHIERVTELQELFLTRVGLDIGKVWVADDGAAVAVWTTPESVEAGAVFAEIGPRMAELSGSRLAAQQQMEGLLAPHRPKEPAWFLATVGVSPDHQGKGLGSAVVLPGVEAAERAGVPAFLETSAPRNLPFYERLGFTVTADVEVPEGPRTWCMTRKPGA
B4: 22221 (protein)
chain: MALPVTALLLPLALLLHAARPACEVQLLESGGGLIQPGGSLRLSCAASGFTFSSHAMTWVRQAPGKGLEWVSAISGSGDYTHYADSVKGRFTISRDNSKNTVYLQMNSLRAEDSAVYYCAKDEDGGSLLGHRGQGTLVTVSSGTGPQGIFGQPGYINEFDIQMTQSPSSLSASVGDRVTITCKASDHINNWLAWYQQKPGQAPKLLIYGATTLETGVPSRFSGSGSGTDYTLTISSLQPEDFATYYCQQSWNTPWTFGQGTKLEIKRLEDLKNVFPPEVAVFEPSKAEIAHTQKATLVCLATGFYPDHVELSWWVNGKEVHSGVCTDPQPLKEQPALNDSRYCLSSRLRVSATFWQNPRNHFRCQVQFYGLSENDEWTQDRAKPVTQIVSAEAWGRADCGITSASYHQGVLSATILYEILLGKATLYAVLVSALVLMAMVKRKDSRGRAKRSGSGATNFSLLKQAGDVEENPGPTSATMDWIWRILFLVGAATGAHSGPEVQLVESGGGLVQAGGSLRLSCAASGRTFSMGWFRQAPGKEREFVAAITYSGGSPYYADSVKGRFTISRDNAKNTVYLQMNSLKPEDTAVYYCAANPTYGSDWNAENWGQGTQVTVSSGSGGGGSGGGGSGGGGSFEQVQLQQPGAELVKPGASVKMSCKASGYAFSSYWINWMKQKPGQGLEWIGQIYPGDGDTNYNGKFKGRATLTADTSSSTAYMQLSSLTSEDSAVYFCARSITTVVGCAMDYWGQGTSVTVSSTRIQNPDPAVYQLRDSKSSDKSVCLFTDFDSQTNVSQSKDSDVYITDKCVLDMRSMDFKSNSAVAWSNKSDFACANAFNNSIIPEDTFFPSPESSCDVKLVEKSFETDTNLNFQNLSVIGFRILLLKVAGFNLLMTLRLWSSRAKRSGSGVKQTLNFDLLKLAGDVESNPGPSRGHMTEYKPTVRLATRDDVPRAVRTLAAAFADYPATRHTVDPDRHIERVTELQELFLTRVGLDIGKVWVADDGAAVAVWTTPESVEAGAVFAEIGPRMAELSGSRLAAQQQMEGLLAPHRPKEPAWFLATVGVSPDHQGKGLGSAVVLPGVEAAERAGVPAFLETSAPRNLPFYERLGFTVTADVEVPEGPRTWCMTRKPGA
B5: 22249 (protein)
chain: MALPVTALLLPLALLLHAARPDIQMTQSPSSLSASVGDRVTITCKASDHINNWLAWYQQKPGQAPKLLIYGATTLETGVPSRFSGSGSGTDYTLTISSLQPEDFATYYCQQSWNTPWTFGQGTKLEIKRLEDLKNVFPPEVAVFEPSEAEISHTQKATLVCLATGFYPDHVELSWWVNGKEVHSGVCTDPQPLKEQPALNDSRYCLSSRLRVSATFWQNPRNHFRCQVQFYGLSENDEWTQDRAKPVTQIVSAEAWGRADCGFTSESYQQGVLSATILYEILLGKATLYAVLVSALVLMAMVKRKDSRGRAKRSGSGATNFSLLKQAGDVEENPGPTSATMDWIWRILFLVGAATGAHSGPEVQLVESGGGLVQAGGSLRLSCAASGRTFTMGWFRQAPGKEREFVAAISLSPTLAYYADSVKGRFTISRDNAKNTVVLQMNSLKPEDTALYYCAADRKSVMSIRPDYWGQGTQVTVSSGSALRRLLGLFGFEQVQLQQPGAELVKPGASVKMSCKASGYAFSSYWINWMKQKPGQGLEWIGQIYPGDGDTNYNGKFKGRATLTADTSSSTAYMQLSSLTSEDSAVYFCARSITTVVGCAMDYWGQGTSVTVSSTRIQNPDPAVYQLRDSKSSDKSVCLFTDFDSQTNVSQSKDSDVYITDKCVLDMRSMDFKSNSAVAWSNKSDFACANAFNNSIIPEDTFFPSPESSCDVKLVEKSFETDTNLNFQNLSVIGFRILLLKVAGFNLLMTLRLWSSRAKRSGSGVKQTLNFDLLKLAGDVESNPGPSRGHMTEYKPTVRLATRDDVPRAVRTLAAAFADYPATRHTVDPDRHIERVTELQELFLTRVGLDIGKVWVADDGAAVAVWTTPESVEAGAVFAEIGPRMAELSGSRLAAQQQMEGLLAPHRPKEPAWFLATVGVSPDHQGKGLGSAVVLPGVEAAERAGVPAFLETSAPRNLPFYERLGFTVTADVEVPEGPRTWCMTRKPGA

These molecules were tested on U266 cells (assay: JNG NFAT-GFP induction on co-culture with U266). Conditions: not given.
Assay type: cell-based

Molecule | NFAT-GFP ASSAY: U266
B1 | 5+ (refer to approximately 5%, 10%, 20%, 30%, 40% and 50% GFP positive cells)
B2 | 5+ (refer to approximately 5%, 10%, 20%, 30%, 40% and 50% GFP positive cells)
B3 | 2+ (refer to approximately 5%, 10%, 20%, 30%, 40% and 50% GFP positive cells)
B4 | 2+ (refer to approximately 5%, 10%, 20%, 30%, 40% and 50% GFP positive cells)
B5 | 4+ (refer to approximately 5%, 10%, 20%, 30%, 40% and 50% GFP positive cells)

What follows are molecules tested on RS;411 (assay: JNG assay, co-culture with RS;411 cells). Conditions: co-culture with RS411.
Assay type: cell-based
Summary of the method: (§1)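 Jurkat NFAT-GFP (JNG) cells stably transduced with SARs by lentivirus, with drug selection where the construct carried a resistance gene, then co-cultured with target cells at E:T ~1:2 for ~4–18 h. % GFP-positive cells measured by FACS against parental JNG; +/- to 5+ correspond to ~5–50% GFP-positive.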

Molecule | NFAT-GFP ASSAY: RS411
B1 | 2+ (refer to approximately 5%, 10%, 20%, 30%, 40% and 50% GFP positive cells)
B2 | 2+ (refer to approximately 5%, 10%, 20%, 30%, 40% and 50% GFP positive cells)
B3 | + (refer to approximately 5%, 10%, 20%, 30%, 40% and 50% GFP positive cells)
B4 | + (refer to approximately 5%, 10%, 20%, 30%, 40% and 50% GFP positive cells)
B5 | + (refer to approximately 5%, 10%, 20%, 30%, 40% and 50% GFP positive cells)

These molecules were tested on L363 cells (assay: JNG assay, co-culture with L363 cells). Conditions: co-culture with L363.
Assay type: cell-based
Summary of the method: as §1

Molecule | NFAT-GFP ASSAY: L363
B1 | 3+ (refer to approximately 5%, 10%, 20%, 30%, 40% and 50% GFP positive cells)
B2 | 3+ (refer to approximately 5%, 10%, 20%, 30%, 40% and 50% GFP positive cells)
B4 | + (refer to approximately 5%, 10%, 20%, 30%, 40% and 50% GFP positive cells)
B5 | 2+ (refer to approximately 5%, 10%, 20%, 30%, 40% and 50% GFP positive cells)

These molecules were tested on Nalm6 cells (assay: JNG assay, co-culture with Nalm6 cells). Conditions: co-culture with Nalm6.
Assay type: cell-based
Summary of the method: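 Stable SAR lines in NFAT-GFP Jurkat background; coculture with target line ~4–18 h, E:T ~1:2; flow readout of GFP; positive if %GFP+ exceeds parental line; semi-quantitative grading +/- (~5%) through 5+ (~50%).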

Molecule | NFAT-GFP ASSAY: Nalm6
B1 | 3+ (refer to approximately 5%, 10%, 20%, 30%, 40% and 50% GFP positive cells)
B2 | 3+ (refer to approximately 5%, 10%, 20%, 30%, 40% and 50% GFP positive cells)
B3 | + (refer to approximately 5%, 10%, 20%, 30%, 40% and 50% GFP positive cells)
B4 | + (refer to approximately 5%, 10%, 20%, 30%, 40% and 50% GFP positive cells)

Each molecule was assayed on RAJI-CD19-KO cells (assay: JNG assay, co-culture with RAJI-CD19-KO cells). Conditions: co-culture with Raji-CD19-KO.
Assay type: cell-based
Summary of the method: as §1

Molecule | NFAT-GFP ASSAY: Raji-CD19-KO
B1 | 4+ (refer to approximately 5%, 10%, 20%, 30%, 40% and 50% GFP positive cells)
B2 | 4+ (refer to approximately 5%, 10%, 20%, 30%, 40% and 50% GFP positive cells)
B5 | 2+ (refer to approximately 5%, 10%, 20%, 30%, 40% and 50% GFP positive cells)

What follows are molecules tested on RAJI cells (assay: JNG assay, co-culture with RAJI cells). Conditions: JNG cells expressing construct, co-culture with Raji.
Assay type: cell-based
Summary of the method: as §1

Molecule | NFAT-GFP ASSAY: Raji
B3 | +/- (refer to approximately 5%, 10%, 20%, 30%, 40% and 50% GFP positive cells)
B5 | + (refer to approximately 5%, 10%, 20%, 30%, 40% and 50% GFP positive cells)
